Measurements as given in patent US20060263381A1 (INSTITUT GUSTAVE ROUSSY, published 2006).

B1: p911Y1V9 (YVWELMTFGV) (peptide)
peptide: YVWELMTFGV
notes: It is a 10-mer, although the label says V9
B2: p174 (CLGLSYDGLL) (peptide)
peptide: CLGLSYDGLL
notes: Native peptide of MAGE-A1, -A2, -A3, -A4, -A6, -A12; It is named by the position of its first residue in MAGE-A1
B3: p174Y1V10 (YLGLSYDGLV) (peptide)
peptide: YLGLSYDGLV
notes: Variant of p174 with tyrosine at P1 and valine at P10
B4: p248G9 (YLEYRQVPG) (peptide)
peptide: YLEYRQVPG
notes: Native peptide of MAGE-A2, -A3, -A4, -A6, -A10, -A12
B5: p248V9 (YLEYRQVPV) (peptide)
peptide: YLEYRQVPV
notes: Variant of p248G9 and p248D9 with valine at P9

The binders below were run against T1, HLA-A*0201 molecule (human) (assay: T2 cell HLA-A*0201 stabilisation, flow cytometry with BB7.2).
T1 construct: MHC class I molecule on T2 cells, to which the test peptides are added from outside
Description: (§1) The cells are then analyzed by flow cytometry. […] The mean RA for each peptide is determined from at least three independent experiments. In all the experiments, 20& of the maximum fluorescence was obtained for 1 to 3 μM of the reference peptide.

Binder | RA (relative affinity)
B1 | 2.03 ratio to reference peptide HIVpol 589

Biological target: T1, HLA-A*0201 molecule
Experiment: as above
Remark: another data set of the same source
Description: as §1

Binder | RA (relative affinity)
YLFLWGPRA (Variant of p262 with leucine at P2) [p262L2 (YLFLWGPRA)] | 0.2 ratio to reference peptide HIVpol 589
YLGLSYDGLL (Variant of p174 with tyrosine at P1) [p174Y1 (YLGLSYDGLL)] | 13 ratio to reference peptide HIVpol 589
B2 | 41 ratio to reference peptide HIVpol 589
B3 | 2.5 ratio to reference peptide HIVpol 589
B4 | > 27 ratio to reference peptide HIVpol 589
B5 | 1.8 ratio to reference peptide HIVpol 589
YLEYRQVPD (Native peptide of MAGE-A1) [p248D9 (YLEYRQVPD)] | 22.5 ratio to reference peptide HIVpol 589

These binders were tested against T1, HLA-A*0201 molecule (assay: T2 cells loaded with 100 µM peptide, Brefeldin A, flow cytometry with BB7.2 at 0-8 h).

Binder | DC50 (time for loss of 50% of the complexes) [h]
YLFLWGPRA (Variant of p262 with leucine at P2) [p262L2 (YLFLWGPRA)] | 6
YLGLSYDGLL (Variant of p174 with tyrosine at P1) [p174Y1 (YLGLSYDGLL)] | < 2
B2 | < 2
B3 | < 2
B4 | < 2
B5 | 4
YLEYRQVPD (Native peptide of MAGE-A1) [p248D9 (YLEYRQVPD)] | < 2
